This assay addresses mCherry-tagged mutant Htt exon 1 (HttQ91). Put plainly: FRET or BRET.

The substance “YFP-tagged wild-type Htt exon 1 (HttQ25) (domain or fragment)” returned a mean FRET efficiency of 16.3%.

The values above are taken from publication PMC4515032.
